Source: paper PMC11840927, “Frataxin Traps Low Abundance Quaternary Structure to Stimulate Human Fe–S Cluster Biosynthesis” (Biochemistry, 2025)

Target: T1, NFS1(Δ1–55)-ISD11(S11A)-ACPec complex with N-terminal His6 tag on NFS1 (human | Escherichia coli, UniProt Q9Y697 56-457; Q9HD34 1-91; P0A6A8 1-78, S11A, covalently attached PLP | acyl-4′PPT (assumed mass 523 Da))
T1 construct: NFS1, human cysteine desulfurase, Δ1–55 (residues 56 to the C-terminus); ISD11 (LYRM superfamily), human, S11A; Escherichia coli acyl-carrier protein (ACPec) associated with NFS1-ISD11; Used uniformly 14N or 15N labelled in the exchange experiments; Calculated masses excluded the N-terminal methionine if present; also called SDAec; His-tagged SDAec; not shown: His6, N-terminal, kept; copies: 2 + …
Experiment: native MS; complexes formed before the exchange reaction: SDAec with ISCU2 (1:3) or ISCU2 and FXN (1:3:3), IscS with IscU (1:3), 30 min, room temperature, EMR Orbitrap
Conditions: both partners purified

B1: FXN (Δ1–81) (natural protein, human, UniProt Q16595 82-210, looked up)
chain: GTLGHPGSLDETTYERLAEETLDSLAEFFEDLADKPYTFEDYDVSFGSGVLTVKLGGDLGTYVINKQTPNKQIWLSSPSSGPKRYDWTGKNWVYSHDGVSLHELLAAELTKALKTKLDLSSLAYSGKDA
notes: frataxin (FXN), human, Δ1–81 (residues 82 to the C-terminus); also called frataxin
Q: Does B1 bind?
A: Result: binds

B2: ISCU2 (Δ1–35) (natural protein, human, UniProt Q9H1K1-1 36-167, looked up)
chain: HKKVVDHYENPRNVGSLDKTSKNVGTGLVGAPACGDVMKLQIQVDEKGKIVDARFKTFGCGSAIASSSLATEWVKGKTVEEALTIKNTDIAKELCLPPVKLHCSMLAEDAIKAALADYKLKQEPKKGEAEKK
notes: ISCU2, human Fe–S cluster scaffold protein, Δ1–35 (residues 36 to the C-terminus); Two constructs were made, ISCU2-TEV-GST and ISCU2-TEV-GST-His6; Residues of the TEV site may remain at the C-terminus after cleavage (surmised); also called scaffold protein; source: E. coli BL21(DE3), purified (GST column, TEV digestion, Ni-NTA, cation exchange, Sephacryl S100); not shown: GST, C-terminal, cleaved
Q: Does B2 bind?
A: Result: binds
